# Data as given in IntAct's records for PubMed 18498651.
# B1: Double-stranded RNA-binding protein Staufen homolog 1 (Homo sapiens), O95793-2 (parent)
# chain: MKLGKKPMYKPVDPYSRMQSTYNYNMRGGAYPPRYFYPFPVPPLLYQVELSVGGQQFNGKGKTRQAAKHDAAAKALRILQNEPLPERLEVNGRESEEENLNKSEISQVFEIALKRNLPVNFEVARESGPPHMKNFVTKVSVGEFVGEGEGKSKKISKKNAAIAVLEELKKLPPLPAVERVKPRIKKKTKPIVKPQTSPEYGQGINPISRLAQIQQAKKEKEPEYTLLTERGLPRRREFVMQVKVGNHTAEGTGTNKKVAKRNAAENMLEILGFKVPQAQPTKPALKSEEKTPIKKPGDGRKVTFFEPGSGDENGTSNKEDEFRMPYLSHQQLPAGILPMVPEVAQAVGVSQGHHTKDFTRAAPNPAKATVTAMIARELLYGGTSPTAETILKNNISSGHVPHGPLTRPSEQLDYLSRVQGFQVEYKDFPKNNKNEFVSLINCSSQPPLISHGIGKDVESCHDMAALNILKLLSELDQQSTEMPRTGNGPMSVCGRC
# Variants of: B1
# Conditions: with gag_hv1h2 gag
row,Variant,effect of a mutation on the interaction
1,F135A,disrupting interaction
